Biological target: ep300_human EP300 (UniProt Q09472)
Sequence (Q09472 whole entry): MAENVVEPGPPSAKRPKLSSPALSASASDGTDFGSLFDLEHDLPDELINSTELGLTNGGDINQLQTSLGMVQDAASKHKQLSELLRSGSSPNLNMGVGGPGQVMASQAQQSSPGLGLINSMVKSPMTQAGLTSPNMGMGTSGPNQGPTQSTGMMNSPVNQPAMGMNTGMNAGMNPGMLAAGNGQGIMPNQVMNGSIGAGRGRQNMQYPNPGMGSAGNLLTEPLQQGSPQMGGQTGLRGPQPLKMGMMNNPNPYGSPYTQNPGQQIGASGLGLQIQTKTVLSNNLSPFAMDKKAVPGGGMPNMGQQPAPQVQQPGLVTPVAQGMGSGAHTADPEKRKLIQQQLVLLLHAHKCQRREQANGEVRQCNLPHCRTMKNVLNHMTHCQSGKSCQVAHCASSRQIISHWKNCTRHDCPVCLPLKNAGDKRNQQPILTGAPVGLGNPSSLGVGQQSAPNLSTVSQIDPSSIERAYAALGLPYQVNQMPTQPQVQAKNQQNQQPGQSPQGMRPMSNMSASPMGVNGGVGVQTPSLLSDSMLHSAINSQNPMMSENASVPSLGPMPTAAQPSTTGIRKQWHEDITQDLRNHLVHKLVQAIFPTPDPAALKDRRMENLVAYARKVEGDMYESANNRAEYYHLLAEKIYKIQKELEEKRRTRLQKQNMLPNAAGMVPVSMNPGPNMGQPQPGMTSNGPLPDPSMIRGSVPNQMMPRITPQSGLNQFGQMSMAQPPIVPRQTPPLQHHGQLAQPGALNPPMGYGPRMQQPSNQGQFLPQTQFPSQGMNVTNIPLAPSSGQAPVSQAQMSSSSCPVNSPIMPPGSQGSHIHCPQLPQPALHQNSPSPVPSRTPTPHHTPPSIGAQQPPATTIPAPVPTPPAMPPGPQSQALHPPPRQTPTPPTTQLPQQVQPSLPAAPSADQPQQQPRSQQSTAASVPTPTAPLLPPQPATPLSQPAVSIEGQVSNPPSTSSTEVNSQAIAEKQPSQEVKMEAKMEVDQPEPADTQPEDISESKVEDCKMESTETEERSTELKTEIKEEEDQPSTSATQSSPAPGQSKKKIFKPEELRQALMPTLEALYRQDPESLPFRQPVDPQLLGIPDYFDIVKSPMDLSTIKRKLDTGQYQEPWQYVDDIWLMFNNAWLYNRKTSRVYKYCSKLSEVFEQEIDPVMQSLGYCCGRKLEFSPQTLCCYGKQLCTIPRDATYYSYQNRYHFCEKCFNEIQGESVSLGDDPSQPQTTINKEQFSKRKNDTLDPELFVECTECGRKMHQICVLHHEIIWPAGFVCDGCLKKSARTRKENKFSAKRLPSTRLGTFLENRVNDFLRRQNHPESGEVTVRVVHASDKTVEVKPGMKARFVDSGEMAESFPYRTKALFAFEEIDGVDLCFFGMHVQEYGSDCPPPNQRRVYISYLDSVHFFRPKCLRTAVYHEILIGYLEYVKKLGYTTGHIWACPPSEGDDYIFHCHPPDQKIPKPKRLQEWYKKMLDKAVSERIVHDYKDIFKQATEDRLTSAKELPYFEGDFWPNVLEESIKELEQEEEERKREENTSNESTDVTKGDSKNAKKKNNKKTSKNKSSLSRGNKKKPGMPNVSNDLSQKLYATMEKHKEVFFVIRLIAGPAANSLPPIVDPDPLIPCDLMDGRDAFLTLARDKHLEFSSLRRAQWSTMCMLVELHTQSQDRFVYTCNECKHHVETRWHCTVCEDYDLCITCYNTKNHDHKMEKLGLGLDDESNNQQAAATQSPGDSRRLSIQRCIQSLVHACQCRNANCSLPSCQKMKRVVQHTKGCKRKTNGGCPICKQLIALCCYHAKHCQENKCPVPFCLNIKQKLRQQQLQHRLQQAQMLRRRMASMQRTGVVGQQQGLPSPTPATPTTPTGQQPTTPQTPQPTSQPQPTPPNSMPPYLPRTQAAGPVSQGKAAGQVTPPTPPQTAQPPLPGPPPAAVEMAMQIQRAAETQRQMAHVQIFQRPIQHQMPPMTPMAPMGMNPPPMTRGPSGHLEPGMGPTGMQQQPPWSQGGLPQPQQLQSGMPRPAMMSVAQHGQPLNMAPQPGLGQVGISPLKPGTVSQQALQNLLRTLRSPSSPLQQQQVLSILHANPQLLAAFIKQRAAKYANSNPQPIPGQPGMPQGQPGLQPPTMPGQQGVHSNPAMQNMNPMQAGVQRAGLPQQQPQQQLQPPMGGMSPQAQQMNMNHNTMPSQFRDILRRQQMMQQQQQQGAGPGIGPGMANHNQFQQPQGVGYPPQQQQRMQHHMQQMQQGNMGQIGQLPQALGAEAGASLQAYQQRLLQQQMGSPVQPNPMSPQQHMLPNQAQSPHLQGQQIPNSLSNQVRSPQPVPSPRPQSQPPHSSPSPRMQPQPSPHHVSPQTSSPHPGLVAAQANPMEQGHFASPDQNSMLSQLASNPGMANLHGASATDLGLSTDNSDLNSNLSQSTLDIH

Myocyte-specific enhancer factor 2C (Homo sapiens), Q06413 T80A, sequence (Q06413 whole entry T80A): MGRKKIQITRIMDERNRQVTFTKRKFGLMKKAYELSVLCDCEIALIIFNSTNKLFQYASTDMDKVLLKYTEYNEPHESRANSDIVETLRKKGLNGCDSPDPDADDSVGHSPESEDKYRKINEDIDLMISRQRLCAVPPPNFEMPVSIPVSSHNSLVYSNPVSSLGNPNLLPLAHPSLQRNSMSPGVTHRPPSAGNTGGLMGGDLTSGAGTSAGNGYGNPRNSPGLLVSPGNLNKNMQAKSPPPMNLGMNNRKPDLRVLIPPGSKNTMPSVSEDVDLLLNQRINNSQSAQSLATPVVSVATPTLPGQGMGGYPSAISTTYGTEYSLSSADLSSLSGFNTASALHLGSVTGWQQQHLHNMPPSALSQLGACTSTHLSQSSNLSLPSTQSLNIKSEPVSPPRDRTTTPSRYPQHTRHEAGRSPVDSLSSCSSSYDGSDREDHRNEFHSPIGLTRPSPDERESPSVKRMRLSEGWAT

Substance: Myocyte-specific enhancer factor 2C (Homo sapiens), Q06413 T80A
- effect of a mutation on the interaction: decreasing interaction

Source: IntAct's records for PubMed 21556048
